From patent US20250152742A1, “COMPOSITIONS AND METHODS FOR NEUROLOGICAL DISEASES” (Trames Bio, Inc., priority 2022, published 2025)

System: engineered chimeric receptor SEQ ID NO: 33 and its mutants (human α7-nAChR ligand binding domain / human GlyRα1 ion pore domain) in Lenti-X 293T cells
Test: YFP fluorescence quenching anion reporter plate reader assay (percent quench, EC50)
Format: cell-based
Conditions: for YFP fluorescence quenching using CNL001 (percent quench): receptor named in row; for YFP fluorescence quenching using Facinicline, 30 nM fac: ligand Facinicline 30 nM; for YFP fluorescence quenching using Facinicline, 300 nM fac: ligand Facinicline 300 nM; for YFP fluorescence quenching using Facinicline, 30 uM fac: ligand Facinicline 30 uM; for YFP fluorescence quenching using TC-6987, 1 uM tc6987: ligand TC-6987 1 uM; for YFP fluorescence quenching using TC-6987, 10 uM tc6987: ligand TC-6987 10 uM; for YFP fluorescence quenching using TC-6987, 500 uM tc6987: ligand TC-6987 500 uM; for YFP fluorescence quenching using Varenicline, 3 nM var: ligand Varenicline 3 nM; for YFP fluorescence quenching using Varenicline, 30 nM var: ligand Varenicline 30 nM; for YFP fluorescence quenching using Varenicline, 300 nM var: ligand Varenicline 300 nM; for YFP fluorescence quenching using Varenicline, 500 nM var: ligand Varenicline 500 nM; for YFP fluorescence quenching using Varenicline, 1 uM var: ligand Varenicline 1 uM
How it was run: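 Percent quench compares mean YFP signal over the final 10 s with the 15 s baseline before ligand, added in iodide-containing extracellular solution (pH 7.2). Cells were LX293T carrying a YFP anion reporter, transiently transfected with the channel construct; plates were preincubated 30 min at 37 °C.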

[1] = 1 nM CNL001, first column so headed
[2] = 1 nM CNL001, second column so headed
[3] = 3 nM brd (TC-5619/Bradanicline)
[4] = 10 nM CNL001, first column so headed
[5] = 10 nM CNL001, second column so headed
[6] = 30 nM brd (TC-5619/Bradanicline)
[7] = 50 nM CNL001, first column so headed
[8] = 50 nM CNL001, second column so headed
[9] = 100 nM CNL001, first column so headed
[10] = 100 nM CNL001, second column so headed
[11] = 300 nM brd (TC-5619/Bradanicline)
[12] = 1 uM CNL001, first column so headed
[13] = 1 uM CNL001, second column so headed

B1: CODA334: engineered receptor: L131Q in SEQ ID NO: 33 (protein)
chain: MRCSPGGVWLALAASLLHVSLQGEFQRKLYKELVKNYNPLERPVANDSQPLTVYFSLSLLQIMDVDEKNQVLTTNIWLQMSWTDHYLQWNVSEYPGVKTVRFPDGQIWKPDILLYNSADERFDATFHTNVQVNSSGHCQYLPPGIFKSSCPMDLKNFPMDVQTCKLKFGSWSYGGWSLDLQMQEADISGYIPNGEWDLVGIPGKRSERFYECCKEPYPDVTFTVTMRRRMGYYLIQMYIPSLLIVILSWISFWINMDAAPARVGLGITTVLTMTTQSSGSRASLPKVSYVKAIDIWMAVCLLFVFSALLEYAAVNFVSRQHKELLRFRRKRRHHKSPMLNLFQEDEAGEGRFNFSAYGMGPACLQAKDGISVKGANNSNTTNPPPAPSKSPEEMRKLFIQRAKKIDKISRIGFPMAFLIFNMFYWIIYKIVRREDVHNQ
modifications: synthetic sequence of chimeric LGIC
YFP fluorescence quenching using CNL001 (percent quench) [1]: 76.165%
YFP fluorescence quenching using CNL001 (percent quench) [2]: 78.463%
YFP fluorescence quenching using TC-5619/Bradanicline (percent quench) [3]: 41.92%
YFP fluorescence quenching using CNL001 (percent quench) [4]: 79.349%
YFP fluorescence quenching using CNL001 (percent quench) [5]: 78.238%
YFP fluorescence quenching using TC-6683 (percent quench) (30 nM TC-6683): −17.99%
YFP fluorescence quenching using TC-5619/Bradanicline (percent quench) [6]: 63.65%
YFP fluorescence quenching using CNL001 (percent quench) [7]: 80.221%
YFP fluorescence quenching using CNL001 (percent quench) [8]: 81.789%
YFP fluorescence quenching using ABT-126 (percent quench) (50 nM abt (ABT-126)): 23.65%
YFP fluorescence quenching using CNL001 (percent quench) [9]: 82%
YFP fluorescence quenching using CNL001 (percent quench) [10]: 80.766%
YFP fluorescence quenching (percent quench) (100 nM CNL002): 49.9%
YFP fluorescence quenching using ABT-126 (percent quench) (100 nM abt (ABT-126)): 61.83%
YFP fluorescence quenching using AZD-0328 (percent quench) (100 nM azd0328): 80.55%
YFP fluorescence quenching using TC-6683 (percent quench) (300 nM TC-6683): −23.26%
YFP fluorescence quenching using ABT-126 (percent quench) (300 nM abt (ABT-126)): 76.44%
YFP fluorescence quenching using AZD-0328 (percent quench) (300 nM azd0328): 83.15%
YFP fluorescence quenching using TC-5619/Bradanicline (percent quench) [11]: 64.85%
YFP fluorescence quenching using CNL001 (percent quench) [12]: 81.707%
YFP fluorescence quenching using CNL001 (percent quench) [13]: 82.665%
YFP fluorescence quenching (percent quench) (1 uM CNL002): 80.72%
YFP fluorescence quenching using ABT-126 (percent quench) (1 uM abt (ABT-126)): 77.68%
YFP fluorescence quenching using TC-6683 (percent quench) (3 uM TC-6683): −18.84%
YFP fluorescence quenching (percent quench) (10 uM ach (acetylcholine)): −2.63%
YFP fluorescence quenching (percent quench) (30 uM CNL002): 80.97%
YFP fluorescence quenching using TC-6683 (percent quench) (30 uM TC-6683): −16.92%
YFP fluorescence quenching (percent quench) (30 uM ach (acetylcholine)): 30.06%
YFP fluorescence quenching using AZD-0328 (percent quench) (30 uM azd0328): 82.53%
YFP fluorescence quenching using TC-6683 (percent quench) (100 uM TC-6683): −15.59%
YFP fluorescence quenching (percent quench) (100 uM ach (acetylcholine)): 71.27%
YFP fluorescence quenching (percent quench) (1 mM ach (acetylcholine)): 79.66%
YFP fluorescence quenching (percent quench) (3 mM ach (acetylcholine)): 74.9%
YFP fluorescence quenching using Facinicline, 30 nM fac: 83.07
YFP fluorescence quenching using Facinicline, 100 nM fac (ligand Facinicline 100 nM): 85.36
YFP fluorescence quenching using Facinicline, 300 nM fac: 84.19
YFP fluorescence quenching using Facinicline, 30 uM fac: 82.75
YFP fluorescence quenching using TC-6987, 1 uM tc6987: 74.1
YFP fluorescence quenching using TC-6987, 10 uM tc6987: 81.7
YFP fluorescence quenching using TC-6987, 500 uM tc6987: 80.18
YFP fluorescence quenching using Varenicline, 3 nM var (first column): −5.192
YFP fluorescence quenching using Varenicline, 3 nM var (second column): −4.327
YFP fluorescence quenching using Varenicline, 30 nM var (first column): −0.688
YFP fluorescence quenching using Varenicline, 30 nM var (second column): 0.672
YFP fluorescence quenching using Varenicline, 300 nM var (first column): 75.189
YFP fluorescence quenching using Varenicline, 300 nM var (second column): 74.923
YFP fluorescence quenching using Varenicline, 500 nM var (first column): 79.048
YFP fluorescence quenching using Varenicline, 500 nM var (second column): 80.337
YFP fluorescence quenching using Varenicline, 1 uM var (first column): 79.766
YFP fluorescence quenching using Varenicline, 1 uM var (second column): 76.836

B2: CODA335: engineered receptor: L131T in SEQ ID NO: 33 (protein)
chain: MRCSPGGVWLALAASLLHVSLQGEFQRKLYKELVKNYNPLERPVANDSQPLTVYFSLSLLQIMDVDEKNQVLTTNIWLQMSWTDHYLQWNVSEYPGVKTVRFPDGQIWKPDILLYNSADERFDATFHTNVTVNSSGHCQYLPPGIFKSSCPMDLKNFPMDVQTCKLKFGSWSYGGWSLDLQMQEADISGYIPNGEWDLVGIPGKRSERFYECCKEPYPDVTFTVTMRRRMGYYLIQMYIPSLLIVILSWISFWINMDAAPARVGLGITTVLTMTTQSSGSRASLPKVSYVKAIDIWMAVCLLFVFSALLEYAAVNFVSRQHKELLRFRRKRRHHKSPMLNLFQEDEAGEGRFNFSAYGMGPACLQAKDGISVKGANNSNTTNPPPAPSKSPEEMRKLFIQRAKKIDKISRIGFPMAFLIFNMFYWIIYKIVRREDVHNQ
modifications: synthetic sequence of chimeric LGIC
YFP fluorescence quenching using CNL001 (percent quench) [1]: −9.942%
YFP fluorescence quenching using CNL001 (percent quench) [2]: −0.475%
YFP fluorescence quenching using TC-5619/Bradanicline (percent quench) (1 nM brd (TC-5619/Bradanicline)): −2.39%
YFP fluorescence quenching using TC-5619/Bradanicline (percent quench) [3]: −4.08%
YFP fluorescence quenching using CNL001 (percent quench) [4]: 17.889%
YFP fluorescence quenching using CNL001 (percent quench) [5]: 38.46%
YFP fluorescence quenching using TC-5619/Bradanicline (percent quench) (10 nM brd (TC-5619/Bradanicline)): −3.3%
YFP fluorescence quenching using TC-6683 (percent quench) (30 nM TC-6683): −13.84%
YFP fluorescence quenching using TC-5619/Bradanicline (percent quench) [6]: −9.69%
YFP fluorescence quenching using CNL001 (percent quench) [7]: 61.741%
YFP fluorescence quenching using CNL001 (percent quench) [8]: 69.159%
YFP fluorescence quenching using ABT-126 (percent quench) (50 nM abt (ABT-126)): −18%
YFP fluorescence quenching using CNL001 (percent quench) [9]: 73.635%
YFP fluorescence quenching using CNL001 (percent quench) [10]: 76.092%
YFP fluorescence quenching (percent quench) (100 nM CNL002): −14.53%
YFP fluorescence quenching using ABT-126 (percent quench) (100 nM abt (ABT-126)): −16.39%
YFP fluorescence quenching using AZD-0328 (percent quench) (100 nM azd0328): 11.33%
YFP fluorescence quenching using TC-5619/Bradanicline (percent quench) (100 nM brd (TC-5619/Bradanicline)): −1.05%
YFP fluorescence quenching using TC-6683 (percent quench) (300 nM TC-6683): −20.66%
YFP fluorescence quenching using ABT-126 (percent quench) (300 nM abt (ABT-126)): −15.05%
YFP fluorescence quenching using AZD-0328 (percent quench) (300 nM azd0328): 44.15%
YFP fluorescence quenching using TC-5619/Bradanicline (percent quench) [11]: 10.53%
YFP fluorescence quenching using CNL001 (percent quench) [12]: 80.633%
YFP fluorescence quenching using CNL001 (percent quench) [13]: 79.637%
YFP fluorescence quenching (percent quench) (1 uM CNL002): 6.45%
YFP fluorescence quenching using ABT-126 (percent quench) (1 uM abt (ABT-126)): −5.56%
YFP fluorescence quenching using TC-5619/Bradanicline (percent quench) (1 uM brd (TC-5619/Bradanicline)): 34.72%
YFP fluorescence quenching using TC-6683 (percent quench) (3 uM TC-6683): −17.86%
YFP fluorescence quenching (percent quench) (10 uM ach (acetylcholine)): −9.13%
YFP fluorescence quenching (percent quench) (30 uM CNL002): 57.43%
YFP fluorescence quenching using TC-6683 (percent quench) (30 uM TC-6683): −18.91%
YFP fluorescence quenching using AZD-0328 (percent quench) (30 uM azd0328): 80.96%
YFP fluorescence quenching using TC-6683 (percent quench) (100 uM TC-6683): −16.88%
YFP fluorescence quenching (percent quench) (100 uM ach (acetylcholine)): −9.29%
YFP fluorescence quenching (percent quench) (1 mM ach (acetylcholine)): 0.57%
YFP fluorescence quenching (percent quench) (3 mM ach (acetylcholine)): 35.37%
YFP fluorescence quenching using Facinicline, 30 nM fac: 1.24
YFP fluorescence quenching using Facinicline, 300 nM fac: 46.92
YFP fluorescence quenching using Facinicline, 10 uM fac (ligand Facinicline 10 uM): 79.06
YFP fluorescence quenching using Facinicline, 30 uM fac: 81.06
YFP fluorescence quenching using TC-6987, 1 uM tc6987: −0.14
YFP fluorescence quenching using TC-6987, 3 uM tc6987 (ligand TC-6987 3 uM): −8.32
YFP fluorescence quenching using TC-6987, 5 uM tc6987 (ligand TC-6987 5 uM): −2.13
YFP fluorescence quenching using TC-6987, 10 uM tc6987: 0.13
YFP fluorescence quenching using TC-6987, 30 uM tc6987 (ligand TC-6987 30 uM): −6.86
YFP fluorescence quenching using TC-6987, 50 uM tc6987 (ligand TC-6987 50 uM): −9.5
YFP fluorescence quenching using TC-6987, 100 uM tc6987 (ligand TC-6987 100 uM): −10.98
YFP fluorescence quenching using TC-6987, 300 uM tc6987 (ligand TC-6987 300 uM): −12.16
YFP fluorescence quenching using TC-6987, 500 uM tc6987: −2.41
YFP fluorescence quenching using Varenicline, 3 nM var (first column): 0.398
YFP fluorescence quenching using Varenicline, 3 nM var (second column): 3.947
YFP fluorescence quenching using Varenicline, 30 nM var (first column): 5.31
YFP fluorescence quenching using Varenicline, 30 nM var (second column): 7.666
YFP fluorescence quenching using Varenicline, 300 nM var (first column): 4.327
YFP fluorescence quenching using Varenicline, 300 nM var (second column): 3.275
YFP fluorescence quenching using Varenicline, 500 nM var (first column): 1.835
YFP fluorescence quenching using Varenicline, 500 nM var (second column): 4.863
YFP fluorescence quenching using Varenicline, 1 uM var (first column): 9.471
YFP fluorescence quenching using Varenicline, 1 uM var (second column): 7.505
